Source: publication PMC9674292

Key:
[1] = target: EGFP-VopF (V. cholerae); assay: stepwise photobleaching of single-molecule speckles (TIRF, live cells); XTC cells with very low levels of EGFP-VopF or EGFP-VopL; speckles arrested with 10 nM latrunculin A; continuous 488-nm illumination; distribution of bleaching steps compared with a binomial model (probability of EGFP being fluorescent 0.75)
[2] = target: EGFP-VopL (V. parahaemolyticus); assay: as above

EGFP-VopF (natural protein)
stoichiometry N [1]: 2

EGFP-VopL (natural protein)
stoichiometry N [2]: 2
